Measurements: patent publication US20170165339A1 (IMMATICS BIOTECHNOLOGIES, published 2017)

target: HLA-A*02 (human); experiment: UV peptide-exchange ELISA, yield grade

**Q.** With FIIQGLRSVGA [FIIQGLRSVGA (SEQ ID NO: 119)] as the binder, how does the peptide exchange yield read?
**A.** The peptide exchange yield was 50 to 75%.

**Q.** With HLSTIIHEA [HLSTIIHEA (SEQ ID NO: 135)] as the binder, how does the peptide exchange yield read?
**A.** The peptide exchange yield was 50 to 75%.

**Q.** MMVGDLLEV [MMVGDLLEV (SEQ ID NO: 152)] was tested. Which peptide exchange yield did it give?
**A.** Its peptide exchange yield is 50 to 75%.

**Q.** With AQADHLPQL [AQADHLPQL (SEQ ID NO: 88)] as the binder, how does the peptide exchange yield read?
**A.** The peptide exchange yield was 20 to 49%.

**Q.** TIYKDFVYI [TIYKDFVYI (SEQ ID NO: 87)] was tested. Which peptide exchange yield did it give?
**A.** The peptide exchange yield was 20 to 49%.

**Q.** Which peptide exchange yield does the source give for GQASYFYVA [GQASYFYVA (SEQ ID NO: 83)] here?
**A.** Its peptide exchange yield is 20 to 49%.

**Q.** Which peptide exchange yield does the source give for ILVEGISTV [ILVEGISTV (SEQ ID NO: 142)] here?
**A.** The peptide exchange yield was 50 to 75%.

**Q.** With VLNDILVRA [VLNDILVRA (SEQ ID NO: 85)] as the binder, how does the peptide exchange yield read?
**A.** The peptide exchange yield was 50 to 75%.

**Q.** For ALLGMIIVGV [ALLGMIIVGV (SEQ ID NO: 100)], which peptide exchange yield is on record?
**A.** The peptide exchange yield was less than 20%.

**Q.** Which peptide exchange yield does the source give for RLFPDFFTRVAL [RLFPDFFTRVAL (SEQ ID NO: 98)] here?
**A.** The peptide exchange yield was 20 to 49%.

**Q.** For KIFPAALQLV [KIFPAALQLV (SEQ ID NO: 232)], which peptide exchange yield is on record?
**A.** The peptide exchange yield was 50 to 75%.

**Q.** With MLDKYSHYL [MLDKYSHYL (SEQ ID NO: 231)] as the binder, how does the peptide exchange yield read?
**A.** The peptide exchange yield was 50 to 75%.

**Q.** How did the peptide exchange yield turn out when GLLFSLRSV [GLLFSLRSV (SEQ ID NO: 92)] was run?
**A.** The peptide exchange yield was no less than 75%.

**Q.** With ILGEVLAQL [ILGEVLAQL (SEQ ID NO: 132)] as the binder, how does the peptide exchange yield read?
**A.** The peptide exchange yield was 50 to 75%.

**Q.** VTPVTVSAV [VTPVTVSAV (SEQ ID NO: 120)] was tested. Which peptide exchange yield did it give?
**A.** The peptide exchange yield was less than 20%.

**Q.** With QMFQYFITV [QMFQYFITV (SEQ ID NO: 126)] as the binder, how does the peptide exchange yield read?
**A.** The peptide exchange yield was no less than 75%.

**Q.** With FLERGLESA [FLERGLESA (SEQ ID NO: 113)] as the binder, how does the peptide exchange yield read?
**A.** The peptide exchange yield was 20 to 49%.

**Q.** Which peptide exchange yield does the source give for AILAHLNTV [AILAHLNTV (SEQ ID NO: 229)] here?
**A.** The peptide exchange yield was no less than 75%.

**Q.** With ALISWQPPRA [ALISWQPPRA (SEQ ID NO: 104)] as the binder, how does the peptide exchange yield read?
**A.** Its peptide exchange yield is 50 to 75%.

**Q.** How did the peptide exchange yield turn out when VTSNSGILGV [VTSNSGILGV (SEQ ID NO: 131)] was run?
**A.** The peptide exchange yield was 50 to 75%.

**Q.** How did the peptide exchange yield turn out when GLLGSLFFL [GLLGSLFFL (SEQ ID NO: 95)] was run?
**A.** The peptide exchange yield was no less than 75%.

**Q.** For AIVDLIHDI [AIVDLIHDI (SEQ ID NO: 111)], which peptide exchange yield is on record?
**A.** Its peptide exchange yield is 20 to 49%.

**Q.** With QLIQTLHAV [QLIQTLHAV (SEQ ID NO: 114)] as the binder, how does the peptide exchange yield read?
**A.** Its peptide exchange yield is 50 to 75%.

**Q.** Which peptide exchange yield does the source give for GLAVPTPSV [GLAVPTPSV (SEQ ID NO: 134)] here?
**A.** Its peptide exchange yield is 50 to 75%.

**Q.** Which peptide exchange yield does the source give for KLDGNELDL [KLDGNELDL (SEQ ID NO: 127)] here?
**A.** The peptide exchange yield was 50 to 75%.

**Q.** Which peptide exchange yield does the source give for LLVPTSGIYFV [LLVPTSGIYFV (SEQ ID NO: 107)] here?
**A.** Its peptide exchange yield is 50 to 75%.

**Q.** How did the peptide exchange yield turn out when QLWQFLVTL [QLWQFLVTL (SEQ ID NO: 118)] was run?
**A.** Its peptide exchange yield is 50 to 75%.

**Q.** With ALHFSEDEI [ALHFSEDEI (SEQ ID NO: 146)] as the binder, how does the peptide exchange yield read?
**A.** Its peptide exchange yield is 20 to 49%.

**Q.** For YLWATIQRI [YLWATIQRI (SEQ ID NO: 145)], which peptide exchange yield is on record?
**A.** The peptide exchange yield was 50 to 75%.

**Q.** ALLPELREV [ALLPELREV (SEQ ID NO: 143)] was tested. Which peptide exchange yield did it give?
**A.** Its peptide exchange yield is 50 to 75%.

**Q.** With SVDSHFQEV [SVDSHFQEV (SEQ ID NO: 86)] as the binder, how does the peptide exchange yield read?
**A.** The peptide exchange yield was 20 to 49%.

**Q.** For RLQDILWFL [RLQDILWFL (SEQ ID NO: 129)], which peptide exchange yield is on record?
**A.** Its peptide exchange yield is no less than 75%.

**Q.** ILNTHITEL [ILNTHITEL (SEQ ID NO: 149)] was tested. Which peptide exchange yield did it give?
**A.** Its peptide exchange yield is 50 to 75%.

**Q.** How did the peptide exchange yield turn out when FLLPTGAEA [FLLPTGAEA (SEQ ID NO: 139)] was run?
**A.** The peptide exchange yield was 20 to 49%.

**Q.** Which peptide exchange yield does the source give for FINDSIVYL [FINDSIVYL (SEQ ID NO: 106)] here?
**A.** The peptide exchange yield was 50 to 75%.

**Q.** With FLDKVLVAA [FLDKVLVAA (SEQ ID NO: 141)] as the binder, how does the peptide exchange yield read?
**A.** The peptide exchange yield was 50 to 75%.

**Q.** How did the peptide exchange yield turn out when SLDPDTLPAV [SLDPDTLPAV (SEQ ID NO: 115)] was run?
**A.** The peptide exchange yield was 20 to 49%.

**Q.** ALLAKILQI [ALLAKILQI (SEQ ID NO: 138)] was tested. Which peptide exchange yield did it give?
**A.** The peptide exchange yield was 50 to 75%.

**Q.** With FTIFRTISV [FTIFRTISV (SEQ ID NO: 121)] as the binder, how does the peptide exchange yield read?
**A.** The peptide exchange yield was 50 to 75%.

**Q.** Which peptide exchange yield does the source give for SLADYEHFV [SLADYEHFV (SEQ ID NO: 125)] here?
**A.** The peptide exchange yield was no less than 75%.

**Q.** How did the peptide exchange yield turn out when FISERVEVV [FISERVEVV (SEQ ID NO: 153)] was run?
**A.** The peptide exchange yield was no less than 75%.

**Q.** With ILLKNLVTI [ILLKNLVTI (SEQ ID NO: 108)] as the binder, how does the peptide exchange yield read?
**A.** The peptide exchange yield was 20 to 49%.

**Q.** VLYDRPLKI [VLYDRPLKI (SEQ ID NO: 150)] was tested. Which peptide exchange yield did it give?
**A.** Its peptide exchange yield is 50 to 75%.

**Q.** With RLLGTEFQV [RLLGTEFQV (SEQ ID NO: 154)] as the binder, how does the peptide exchange yield read?
**A.** Its peptide exchange yield is 50 to 75%.

**Q.** How did the peptide exchange yield turn out when ILGDLSHLL [ILGDLSHLL (SEQ ID NO: 156)] was run?
**A.** The peptide exchange yield was 50 to 75%.

**Q.** ALADFMLSL [ALADFMLSL (SEQ ID NO: 101)] was tested. Which peptide exchange yield did it give?
**A.** The peptide exchange yield was 50 to 75%.

**Q.** With FLFGGVLMTL [FLFGGVLMTL (SEQ ID NO: 136)] as the binder, how does the peptide exchange yield read?
**A.** The peptide exchange yield was 20 to 49%.

**Q.** With KMPDVELFV [KMPDVELFV (SEQ ID NO: 117)] as the binder, how does the peptide exchange yield read?
**A.** Its peptide exchange yield is 50 to 75%.

**Q.** With KLQNIMMLL [KLQNIMMLL (SEQ ID NO: 230)] as the binder, how does the peptide exchange yield read?
**A.** The peptide exchange yield was 20 to 49%.

**Q.** For FLQDLEQRL [FLQDLEQRL (SEQ ID NO: 90)], which peptide exchange yield is on record?
**A.** The peptide exchange yield was 50 to 75%.

**Q.** KVMATIEKV [KVMATIEKV (SEQ ID NO: 124)] was tested. Which peptide exchange yield did it give?
**A.** Its peptide exchange yield is 20 to 49%.

**Q.** GVVDPVHGV [GVVDPVHGV (SEQ ID NO: 122)] was tested. Which peptide exchange yield did it give?
**A.** The peptide exchange yield was 20 to 49%.

**Q.** YLMDDTVEI [YLMDDTVEI (SEQ ID NO: 147)] was tested. Which peptide exchange yield did it give?
**A.** The peptide exchange yield was no less than 75%.

**Q.** How did the peptide exchange yield turn out when ALLAFFPGL [ALLAFFPGL (SEQ ID NO: 144)] was run?
**A.** Its peptide exchange yield is 50 to 75%.

**Q.** Which peptide exchange yield does the source give for SLGKFTFDV [SLGKFTFDV (SEQ ID NO: 112)] here?
**A.** The peptide exchange yield was no less than 75%.

**Q.** FIFDEAEKL [FIFDEAEKL (SEQ ID NO: 82)] was tested. Which peptide exchange yield did it give?
**A.** Its peptide exchange yield is less than 20%.

**Q.** Which peptide exchange yield does the source give for YLVSEIFKA [YLVSEIFKA (SEQ ID NO: 103)] here?
**A.** The peptide exchange yield was 50 to 75%.

**Q.** For SLDPSVTHL [SLDPSVTHL (SEQ ID NO: 109)], which peptide exchange yield is on record?
**A.** The peptide exchange yield was 20 to 49%.

**Q.** How did the peptide exchange yield turn out when LLVSHLYLV [LLVSHLYLV (SEQ ID NO: 96)] was run?
**A.** The peptide exchange yield was 20 to 49%.

**Q.** With ALCPRIHEV [ALCPRIHEV (SEQ ID NO: 84)] as the binder, how does the peptide exchange yield read?
**A.** The peptide exchange yield was no less than 75%.

**Q.** How did the peptide exchange yield turn out when SVLDSTAKV [SVLDSTAKV (SEQ ID NO: 151)] was run?
**A.** Its peptide exchange yield is 20 to 49%.

**Q.** Which peptide exchange yield does the source give for ALLGTKILL [ALLGTKILL (SEQ ID NO: 105)] here?
**A.** Its peptide exchange yield is 50 to 75%.

**Q.** Which peptide exchange yield does the source give for TLTSLLAQA [TLTSLLAQA (SEQ ID NO: 157)] here?
**A.** Its peptide exchange yield is 50 to 75%.

**Q.** SLLGGTFVGI [SLLGGTFVGI (SEQ ID NO: 130)] was tested. Which peptide exchange yield did it give?
**A.** Its peptide exchange yield is 50 to 75%.

**Q.** Which peptide exchange yield does the source give for LLLPAVPVGA [LLLPAVPVGA (SEQ ID NO: 94)] here?
**A.** The peptide exchange yield was 50 to 75%.

**Q.** Which peptide exchange yield does the source give for QLAPVFQRV [QLAPVFQRV (SEQ ID NO: 89)] here?
**A.** Its peptide exchange yield is 20 to 49%.

**Q.** YLLQSVNQLLL [YLLQSVNQLLL (SEQ ID NO: 99)] was tested. Which peptide exchange yield did it give?
**A.** Its peptide exchange yield is 20 to 49%.

**Q.** Which peptide exchange yield does the source give for LLNPVVEFV [LLNPVVEFV (SEQ ID NO: 155)] here?
**A.** The peptide exchange yield was 50 to 75%.

**Q.** Which peptide exchange yield does the source give for HLFDAFVSV [HLFDAFVSV (SEQ ID NO: 233)] here?
**A.** Its peptide exchange yield is 50 to 75%.

**Q.** Which peptide exchange yield does the source give for VLLDIQEVFQI [VLLDIQEVFQI (SEQ ID NO: 102)] here?
**A.** The peptide exchange yield was 50 to 75%.

**Q.** For MLAGIAITV [MLAGIAITV (SEQ ID NO: 148)], which peptide exchange yield is on record?
**A.** The peptide exchange yield was 50 to 75%.

**Q.** For TQSPATLSV [TQSPATLSV (SEQ ID NO: 128)], which peptide exchange yield is on record?
**A.** The peptide exchange yield was 20 to 49%.

**Q.** FLLGVSKEV [FLLGVSKEV (SEQ ID NO: 110)] was tested. Which peptide exchange yield did it give?
**A.** Its peptide exchange yield is 50 to 75%.

**Q.** With ALLPRLHQL [ALLPRLHQL (SEQ ID NO: 133)] as the binder, how does the peptide exchange yield read?
**A.** Its peptide exchange yield is no less than 75%.

**Q.** Which peptide exchange yield does the source give for VLDPALPALV [VLDPALPALV (SEQ ID NO: 123)] here?
**A.** Its peptide exchange yield is 20 to 49%.
